In publication PMC12486381 (Molecular Biology and Evolution, 2025):
Where “and” joins values, the source holds several entries; their conditions need not be identical. Identical values can stand only once. Like-named read-outs stand apart in the source and are kept apart here.

Experiments:
DfrB homolog A0A6J5PTB3 = assay: SEC
[1] = target: DfrB-TS (BBD027md-00173_03685); assay: SEC
[2] = target: DfrB1 (type B dihydrofolate reductase 1); assay: SEC
[3] = target: DfrB homolog BBD029md-00326_13692; assay: SEC
DfrB homolog A0A1R3X8F5 = assay: SEC
DfrB homolog A0A5E7Z8W7 = assay: SEC
A0A0N7CEH1 = assay: initial rate of NADPH and DHF depletion at […] nm, Michaelis-Menten fit; assay type: biochemical, Skermania phage SPI1; details: 50 mM potassium phosphate pH 7, 27 °C
BBD029md-00326_13692 = assay: as above; assay type: biochemical; details: 50 mM potassium phosphate pH 7, 27 °C
A0A839U7A6 = assay: as above; assay type: biochemical, Phyllobacterium trifolii; details: 50 mM potassium phosphate pH 7, 27 °C
UPI001402A2DF = assay: as above; assay type: biochemical; details: 50 mM potassium phosphate pH 7, 27 °C
A0A5E7Z8W7 = assay: as above; assay type: biochemical, Hoeflea sp. EC-HK425; details: 50 mM potassium phosphate pH 7, 27 °C
DfrB homolog A0A0N7CEH1 = assay: SEC
DfrB homolog E2SFM2 = assay: SEC
DfrB homolog A0A345GTK3 = assay: SEC
[4] = target: DfrB homolog UPI001402A2DF; assay: SEC
[5] = system: DfrB-TS (BBD027md-00173_03685); assay: initial rate of NADPH and DHF depletion at […] nm, Michaelis-Menten fit; assay type: biochemical; details: read-out: K M ^DHF; DfrB domain; 50 µM NADPH, 50 mM potassium phosphate pH 7, 27 °C
DfrB homolog A0A839U7A6 = assay: SEC
DfrB homolog A0A1M7UVF4 = assay: SEC
[6] = read-out: K M ^NADPH, 50 µM DHF
[7] = read-out: K M ^DHF, 50 µM NADPH

DfrB1 (type B dihydrofolate reductase 1), sequence (P00383 whole entry): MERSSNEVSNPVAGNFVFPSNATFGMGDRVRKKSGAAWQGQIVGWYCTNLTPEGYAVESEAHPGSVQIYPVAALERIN

DfrB homolog A0A6J5PTB3 (enzyme)
stoichiometry N (DfrB homolog A0A6J5PTB3): 4

DfrB-TS (BBD027md-00173_03685) (enzyme)
stoichiometry N [1]: 4 and 8

DfrB1 (type B dihydrofolate reductase 1) (enzyme)
stoichiometry N [2]: 4

DfrB homolog BBD029md-00326_13692 (enzyme)
stoichiometry N [3]: 4

DfrB homolog A0A1R3X8F5 (natural protein)
stoichiometry N (DfrB homolog A0A1R3X8F5): 4

DfrB homolog A0A5E7Z8W7 (enzyme)
stoichiometry N (DfrB homolog A0A5E7Z8W7): 4

NC(=O)C1=CN([C@@H]2O[C@H](COP(=O)(O)OP(=O)(O)OC[C@H]3O[C@@H](n4cnc5c(N)ncnc54)[C@H](OP(=O)(O)O)[C@@H]3O)[C@@H](O)[C@H]2O)C=CC1 [NADPH]
Km (A0A0N7CEH1; [6]): 5.7 ± 0.6 µM | Km (BBD029md-00326_13692; [6]): 20 ± 10 µM | Km (A0A839U7A6; [6]): 10 ± 5 µM | Km (UPI001402A2DF; [6]): 11 ± 1 µM | Km (A0A5E7Z8W7; [6]): 18 ± 2 µM

DfrB homolog A0A0N7CEH1 (enzyme)
stoichiometry N (DfrB homolog A0A0N7CEH1): 4

DfrB homolog E2SFM2 (natural protein)
stoichiometry N (DfrB homolog E2SFM2): 4

DfrB homolog A0A345GTK3 (natural protein)
stoichiometry N (DfrB homolog A0A345GTK3): 2

DfrB homolog UPI001402A2DF (enzyme)
stoichiometry N [4]: 4

Nc1nc2c(c(=O)[nH]1)N=C(CNc1ccc(C(=O)N[C@@H](CCC(=O)O)C(=O)O)cc1)CN2 [DHF]
Km (A0A0N7CEH1; [7]): 6 ± 2 µM | Km (BBD029md-00326_13692; [7]): 36 ± 4 µM | Km (A0A839U7A6; [7]): 44 ± 5 µM | Km (UPI001402A2DF; [7]): 130 ± 20 µM | Km (A0A5E7Z8W7; [7]): 7 ± 4 µM | Km [5]: 28 ± 3 µM

DfrB homolog A0A839U7A6 (enzyme)
stoichiometry N (DfrB homolog A0A839U7A6): 4

DfrB homolog A0A1M7UVF4 (natural protein)
stoichiometry N (DfrB homolog A0A1M7UVF4): 2
